Test results: patent US20260098059A1 (ENDOMET BIOSCIENCES, published 2026)
Several values for one entry are separate records, joined by “and”; a condition that tells them apart may be missing. Equal values may be shown once. [ ]: non-standard residue; d: D form. Sar = CNCC(=O)O

T1: β-catenin (UniProt P35222 134-665, limits assumed, biotinylated in the SPR and plate assays)
T1 sequence (looked up): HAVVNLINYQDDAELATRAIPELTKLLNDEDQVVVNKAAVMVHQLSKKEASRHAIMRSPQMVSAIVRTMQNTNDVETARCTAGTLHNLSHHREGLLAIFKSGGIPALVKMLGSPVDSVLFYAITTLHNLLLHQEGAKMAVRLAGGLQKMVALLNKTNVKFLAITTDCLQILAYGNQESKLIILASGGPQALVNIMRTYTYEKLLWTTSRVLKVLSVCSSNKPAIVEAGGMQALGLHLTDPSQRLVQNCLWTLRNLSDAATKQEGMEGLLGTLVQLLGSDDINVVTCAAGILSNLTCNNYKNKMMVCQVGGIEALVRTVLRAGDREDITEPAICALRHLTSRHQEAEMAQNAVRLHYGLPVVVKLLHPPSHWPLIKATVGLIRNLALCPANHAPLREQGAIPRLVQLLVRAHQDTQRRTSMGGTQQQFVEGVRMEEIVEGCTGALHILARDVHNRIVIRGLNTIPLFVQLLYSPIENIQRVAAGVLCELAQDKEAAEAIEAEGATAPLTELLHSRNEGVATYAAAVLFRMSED

B1: SEQ ID NO: 202 (peptide)
peptide: KWFLISAWD
HELM: PEPTIDE1{K.W.F.L.I.S.A.W.D}$PEPTIDE1,PEPTIDE1,1:R3-9:R3$$$V2.0
SMILES: CC[C@H](C)[C@@H]1NC(=O)[C@H](CC(C)C)NC(=O)[C@H](Cc2ccccc2)NC(=O)[C@H](Cc2c[nH]c3ccccc23)NC(=O)[C@@H](N)CCCCNC(=O)C[C@@H](C(=O)O)NC(=O)[C@H](Cc2c[nH]c3ccccc23)NC(=O)[C@H](C)NC(=O)[C@H](CO)NC1=O
B2: SEQ ID NO: 203 (peptide)
peptide: KWALISAWD
HELM: PEPTIDE1{K.W.[Cha].L.I.S.A.W.D}$PEPTIDE1,PEPTIDE1,1:R3-9:R3$$$V2.0
SMILES: CC[C@H](C)[C@@H]1NC(=O)[C@H](CC(C)C)NC(=O)[C@H](CC2CCCCC2)NC(=O)[C@H](Cc2c[nH]c3ccccc23)NC(=O)[C@@H](N)CCCCNC(=O)C[C@@H](C(=O)O)NC(=O)[C@H](Cc2c[nH]c3ccccc23)NC(=O)[C@H](C)NC(=O)[C@H](CO)NC1=O
B3: SEQ ID NO: 172 (peptide)
peptide: KWFLICFWD
HELM: PEPTIDE1{K.W.F.L.I.C.F.W.D}$PEPTIDE1,PEPTIDE1,1:R3-9:R3$$$V2.0
SMILES: CC[C@H](C)[C@@H]1NC(=O)[C@H](CC(C)C)NC(=O)[C@H](Cc2ccccc2)NC(=O)[C@H](Cc2c[nH]c3ccccc23)NC(=O)[C@@H](N)CCCCNC(=O)C[C@@H](C(=O)O)NC(=O)[C@H](Cc2c[nH]c3ccccc23)NC(=O)[C@H](Cc2ccccc2)NC(=O)[C@H](CS)NC1=O
B4: SEQ ID NO: 179 (peptide)
peptide: KWFLICFWE
HELM: PEPTIDE1{K.W.F.L.I.C.F.W.E}$PEPTIDE1,PEPTIDE1,1:R3-9:R3$$$V2.0
SMILES: CC[C@H](C)[C@@H]1NC(=O)[C@H](CC(C)C)NC(=O)[C@H](Cc2ccccc2)NC(=O)[C@H](Cc2c[nH]c3ccccc23)NC(=O)[C@@H](N)CCCCNC(=O)CC[C@@H](C(=O)O)NC(=O)[C@H](Cc2c[nH]c3ccccc23)NC(=O)[C@H](Cc2ccccc2)NC(=O)[C@H](CS)NC1=O
B5: SEQ ID NO: 200 (peptide)
peptide: KWFLIAFWE
HELM: PEPTIDE1{[ac].K.W.F.L.I.A.F.W.E}$PEPTIDE1,PEPTIDE1,2:R3-10:R3$$$V2.0
SMILES: CC[C@H](C)[C@@H]1NC(=O)[C@H](CC(C)C)NC(=O)[C@H](Cc2ccccc2)NC(=O)[C@H](Cc2c[nH]c3ccccc23)NC(=O)[C@@H](NC(C)=O)CCCCNC(=O)CC[C@@H](C(=O)O)NC(=O)[C@H](Cc2c[nH]c3ccccc23)NC(=O)[C@H](Cc2ccccc2)NC(=O)[C@H](C)NC1=O
B6: SEQ ID NO: 201 (peptide)
peptide: KWFLIAFWE
HELM: PEPTIDE1{K.W.F.L.I.A.F.W.E}$PEPTIDE1,PEPTIDE1,1:R3-9:R3$$$V2.0
SMILES: CC[C@H](C)[C@@H]1NC(=O)[C@H](CC(C)C)NC(=O)[C@H](Cc2ccccc2)NC(=O)[C@H](Cc2c[nH]c3ccccc23)NC(=O)[C@@H](N)CCCCNC(=O)CC[C@@H](C(=O)O)NC(=O)[C@H](Cc2c[nH]c3ccccc23)NC(=O)[C@H](Cc2ccccc2)NC(=O)[C@H](C)NC1=O
B7: SEQ ID NO: 168 (peptide)
peptide: KWFLICAWD
HELM: PEPTIDE1{K.W.F.L.I.C.A.W.D}$PEPTIDE1,PEPTIDE1,1:R3-9:R3$$$V2.0
SMILES: CC[C@H](C)[C@@H]1NC(=O)[C@H](CC(C)C)NC(=O)[C@H](Cc2ccccc2)NC(=O)[C@H](Cc2c[nH]c3ccccc23)NC(=O)[C@@H](N)CCCCNC(=O)C[C@@H](C(=O)O)NC(=O)[C@H](Cc2c[nH]c3ccccc23)NC(=O)[C@H](C)NC(=O)[C@H](CS)NC1=O
B8: SEQ ID NO: 169 (peptide)
peptide: KWFLICAWD
HELM: PEPTIDE1{[ac].K.W.F.L.I.C.A.W.D}$PEPTIDE1,PEPTIDE1,2:R3-10:R3$$$V2.0
SMILES: CC[C@H](C)[C@@H]1NC(=O)[C@H](CC(C)C)NC(=O)[C@H](Cc2ccccc2)NC(=O)[C@H](Cc2c[nH]c3ccccc23)NC(=O)[C@@H](NC(C)=O)CCCCNC(=O)C[C@@H](C(=O)O)NC(=O)[C@H](Cc2c[nH]c3ccccc23)NC(=O)[C@H](C)NC(=O)[C@H](CS)NC1=O
B9: SEQ ID NO: 187 (peptide)
peptide: KWFLISAWE
HELM: PEPTIDE1{[ac].K.W.F.L.I.S.A.W.E}$PEPTIDE1,PEPTIDE1,2:R3-10:R3$$$V2.0
SMILES: CC[C@H](C)[C@@H]1NC(=O)[C@H](CC(C)C)NC(=O)[C@H](Cc2ccccc2)NC(=O)[C@H](Cc2c[nH]c3ccccc23)NC(=O)[C@@H](NC(C)=O)CCCCNC(=O)CC[C@@H](C(=O)O)NC(=O)[C@H](Cc2c[nH]c3ccccc23)NC(=O)[C@H](C)NC(=O)[C@H](CO)NC1=O
B10: SEQ ID NO: 206 (peptide)
peptide: KWLLISAWD
HELM: PEPTIDE1{K.W.L.L.I.S.A.W.D}$PEPTIDE1,PEPTIDE1,1:R3-9:R3$$$V2.0
SMILES: CC[C@H](C)[C@@H]1NC(=O)[C@H](CC(C)C)NC(=O)[C@H](CC(C)C)NC(=O)[C@H](Cc2c[nH]c3ccccc23)NC(=O)[C@@H](N)CCCCNC(=O)C[C@@H](C(=O)O)NC(=O)[C@H](Cc2c[nH]c3ccccc23)NC(=O)[C@H](C)NC(=O)[C@H](CO)NC1=O
B11: SEQ ID NO: 183 (peptide)
peptide: KWFLISAWE
HELM: PEPTIDE1{K.W.F.L.I.S.A.W.E}$PEPTIDE1,PEPTIDE1,1:R3-9:R3$$$V2.0
SMILES: CC[C@H](C)[C@@H]1NC(=O)[C@H](CC(C)C)NC(=O)[C@H](Cc2ccccc2)NC(=O)[C@H](Cc2c[nH]c3ccccc23)NC(=O)[C@@H](N)CCCCNC(=O)CC[C@@H](C(=O)O)NC(=O)[C@H](Cc2c[nH]c3ccccc23)NC(=O)[C@H](C)NC(=O)[C@H](CO)NC1=O

Target: T1, β-catenin
Test: cell-based or functional assay

Binder | Wnt Reporter EC50
H-MIRMWFLICAWG-OH [SEQ ID NO: 166] | > 30 µM
H-[2Aoc]WFLICFWG-OH [SEQ ID NO: 139] | > 30 µM
H-MWFLIHFWG-OH [SEQ ID NO: 163] | ≤ 7.5 µM
B1 | > 22.5 µM and ≤ 30 µM
B2 | > 7.5 µM and ≤ 15 µM
B3 | ≤ 7.5 µM
B4 | ≤ 7.5 µM
Ac-MWILISFWG-OMe [SEQ ID NO: 222] | > 7.5 µM and ≤ 15 µM
H-MWFLICFW[Sar]-OH [SEQ ID NO: 213] | ≤ 7.5 µM
B5 | ≤ 7.5 µM
H-MWFLICAWG-OH [SEQ ID NO: 211] | ≤ 7.5 µM
B6 | > 22.5 µM and ≤ 30 µM
B7 | ≤ 7.5 µM
B8 | ≤ 7.5 µM
B9 | > 7.5 µM and ≤ 15 µM
H-MAFLISFWG-OH [SEQ ID NO: 210] | ≤ 7.5 µM
B10 | > 15 µM and ≤ 22.5 µM
B11 | ≤ 7.5 µM
